To fix the notation:
B2: human WIPI4 (natural protein, UniProt Q9Y484 1-360, looked up)
chain: MTQQPLRGVTSLRFNQDQSCFCCAMETGVRIYNVEPLMEKGHLDHEQVGSMGLVEMLHRSNLLALVGGGSSPKFSEISVLIWDDAREGKDSKEKLVLEFTFTKPVLSVRMRHDKIVIVLKNRIYVYSFPDNPRKLFEFDTRDNPKGLCDLCPSLEKQLLVFPGHKCGSLQLVDLASTKPGTSSAPFTINAHQSDIACVSLNQPGTVVASASQKGTLIRLFDTQSKEKLVELRRGTDPATLYCINFSHDSSFLCASSDKGTVHIFALKDTRLNRRSALARVGKVGPMIGQYVDSQWSLASFTVPAESACICAFGRNTSKNVNSVIAICVDGTFHKYVFTPDGNCNREAFDVYLDICDDDDF

One experiment concerns the target S. cerevisiae ATG2 (S. cerevisiae, UniProt P53855 1-1592). The experiment can be described thus: negative-stain EM.
The next experiment addresses human ATG2A (human, UniProt Q2TAZ0 1-1938). The experiment can be described thus: negative-stain EM.
The target of the experiment “human WIPI4” is B2. The experiment can be described thus: SEC.

Sequence of S. cerevisiae ATG2 (P53855 whole entry): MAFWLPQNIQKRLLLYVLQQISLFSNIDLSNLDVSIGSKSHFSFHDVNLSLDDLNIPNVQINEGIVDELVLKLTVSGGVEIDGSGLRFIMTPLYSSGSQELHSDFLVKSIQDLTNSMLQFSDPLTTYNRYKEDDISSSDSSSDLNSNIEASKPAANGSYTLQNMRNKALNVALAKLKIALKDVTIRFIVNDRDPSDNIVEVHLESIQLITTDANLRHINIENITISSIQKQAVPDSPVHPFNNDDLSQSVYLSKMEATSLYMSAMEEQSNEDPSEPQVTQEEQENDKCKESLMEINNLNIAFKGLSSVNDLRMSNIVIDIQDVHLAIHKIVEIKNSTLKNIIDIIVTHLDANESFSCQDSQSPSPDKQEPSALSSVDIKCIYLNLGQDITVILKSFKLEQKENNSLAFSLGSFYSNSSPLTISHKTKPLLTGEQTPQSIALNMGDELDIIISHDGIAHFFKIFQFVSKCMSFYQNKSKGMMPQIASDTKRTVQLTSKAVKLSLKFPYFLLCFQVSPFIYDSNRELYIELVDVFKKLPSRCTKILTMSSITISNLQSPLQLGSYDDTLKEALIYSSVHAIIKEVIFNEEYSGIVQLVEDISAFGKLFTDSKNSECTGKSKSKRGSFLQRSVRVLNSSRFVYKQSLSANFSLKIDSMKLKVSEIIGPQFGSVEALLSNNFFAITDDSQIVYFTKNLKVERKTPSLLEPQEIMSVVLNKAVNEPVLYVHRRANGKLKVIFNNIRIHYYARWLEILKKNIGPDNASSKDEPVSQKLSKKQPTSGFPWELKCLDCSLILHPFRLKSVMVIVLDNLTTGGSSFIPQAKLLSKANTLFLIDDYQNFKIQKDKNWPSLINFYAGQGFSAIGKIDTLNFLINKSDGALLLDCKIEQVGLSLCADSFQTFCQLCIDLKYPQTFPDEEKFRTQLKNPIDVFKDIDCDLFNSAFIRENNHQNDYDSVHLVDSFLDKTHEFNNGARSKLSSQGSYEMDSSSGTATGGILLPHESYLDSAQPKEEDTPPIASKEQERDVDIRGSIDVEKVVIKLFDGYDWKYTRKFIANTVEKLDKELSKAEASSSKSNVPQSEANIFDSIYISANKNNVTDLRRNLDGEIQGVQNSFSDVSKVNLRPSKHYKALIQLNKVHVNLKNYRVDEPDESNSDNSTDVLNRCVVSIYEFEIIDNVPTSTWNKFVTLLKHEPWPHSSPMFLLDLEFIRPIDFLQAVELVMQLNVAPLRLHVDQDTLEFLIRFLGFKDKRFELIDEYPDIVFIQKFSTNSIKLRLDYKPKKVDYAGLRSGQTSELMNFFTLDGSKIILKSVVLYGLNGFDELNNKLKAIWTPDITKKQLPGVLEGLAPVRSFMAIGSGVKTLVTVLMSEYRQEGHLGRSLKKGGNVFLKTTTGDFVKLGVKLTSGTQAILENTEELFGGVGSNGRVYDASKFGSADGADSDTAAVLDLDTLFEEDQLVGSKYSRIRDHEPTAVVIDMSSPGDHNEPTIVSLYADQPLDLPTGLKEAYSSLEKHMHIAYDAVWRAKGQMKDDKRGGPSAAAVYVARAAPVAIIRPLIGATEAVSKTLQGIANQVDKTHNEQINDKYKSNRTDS
Sequence of human ATG2A (Q2TAZ0 whole entry): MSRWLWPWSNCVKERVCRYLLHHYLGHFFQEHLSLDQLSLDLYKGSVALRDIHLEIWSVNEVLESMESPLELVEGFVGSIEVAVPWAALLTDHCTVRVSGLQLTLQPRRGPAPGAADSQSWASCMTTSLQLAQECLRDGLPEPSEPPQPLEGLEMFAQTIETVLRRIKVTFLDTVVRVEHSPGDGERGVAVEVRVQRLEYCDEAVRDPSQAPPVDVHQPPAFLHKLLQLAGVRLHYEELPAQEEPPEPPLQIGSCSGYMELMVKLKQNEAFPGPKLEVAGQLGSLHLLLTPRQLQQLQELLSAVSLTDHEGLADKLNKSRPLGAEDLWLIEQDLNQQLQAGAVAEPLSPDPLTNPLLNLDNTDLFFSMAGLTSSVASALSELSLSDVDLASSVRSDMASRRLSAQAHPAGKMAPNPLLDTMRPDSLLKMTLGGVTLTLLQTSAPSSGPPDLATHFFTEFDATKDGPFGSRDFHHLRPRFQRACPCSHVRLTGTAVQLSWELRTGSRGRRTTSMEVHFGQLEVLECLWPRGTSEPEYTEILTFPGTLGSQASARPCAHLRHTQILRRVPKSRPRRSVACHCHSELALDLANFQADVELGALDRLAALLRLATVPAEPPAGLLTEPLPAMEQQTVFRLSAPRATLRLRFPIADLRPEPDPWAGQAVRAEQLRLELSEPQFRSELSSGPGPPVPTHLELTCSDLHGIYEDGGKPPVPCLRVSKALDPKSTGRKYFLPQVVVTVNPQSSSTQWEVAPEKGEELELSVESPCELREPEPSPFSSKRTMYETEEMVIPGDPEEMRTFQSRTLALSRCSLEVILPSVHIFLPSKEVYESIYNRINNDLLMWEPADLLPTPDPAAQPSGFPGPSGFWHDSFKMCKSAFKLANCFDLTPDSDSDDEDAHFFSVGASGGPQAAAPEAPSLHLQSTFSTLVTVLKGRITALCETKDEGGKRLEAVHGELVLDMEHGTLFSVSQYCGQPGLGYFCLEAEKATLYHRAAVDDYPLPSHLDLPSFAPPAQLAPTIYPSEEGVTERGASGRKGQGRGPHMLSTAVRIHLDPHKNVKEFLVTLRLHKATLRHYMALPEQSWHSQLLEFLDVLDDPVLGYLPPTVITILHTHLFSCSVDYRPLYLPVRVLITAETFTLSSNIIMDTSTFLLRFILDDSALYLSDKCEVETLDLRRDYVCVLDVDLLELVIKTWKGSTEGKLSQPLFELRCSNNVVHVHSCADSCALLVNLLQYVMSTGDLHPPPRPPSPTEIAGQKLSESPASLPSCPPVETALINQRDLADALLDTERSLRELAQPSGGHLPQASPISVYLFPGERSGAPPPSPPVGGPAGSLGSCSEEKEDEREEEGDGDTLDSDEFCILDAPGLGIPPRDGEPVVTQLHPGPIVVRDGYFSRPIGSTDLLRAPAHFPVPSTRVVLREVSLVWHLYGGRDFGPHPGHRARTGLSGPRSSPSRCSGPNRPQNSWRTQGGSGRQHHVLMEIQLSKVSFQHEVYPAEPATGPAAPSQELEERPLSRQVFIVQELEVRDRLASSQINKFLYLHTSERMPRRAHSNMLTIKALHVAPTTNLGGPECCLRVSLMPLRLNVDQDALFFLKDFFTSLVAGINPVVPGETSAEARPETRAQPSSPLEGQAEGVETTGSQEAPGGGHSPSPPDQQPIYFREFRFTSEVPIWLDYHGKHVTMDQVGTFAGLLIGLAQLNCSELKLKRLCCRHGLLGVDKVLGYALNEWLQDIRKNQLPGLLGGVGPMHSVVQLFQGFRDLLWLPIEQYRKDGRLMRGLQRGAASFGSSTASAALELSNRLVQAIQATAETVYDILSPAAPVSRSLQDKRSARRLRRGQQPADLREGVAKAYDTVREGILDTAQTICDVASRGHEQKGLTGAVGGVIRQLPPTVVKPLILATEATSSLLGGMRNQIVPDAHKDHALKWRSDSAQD

B1: ATG18 (natural protein, S. cerevisiae, UniProt P43601 1-500, looked up)
chain: MSDSSPTINFINFNQTGTCISLGTSKGFKIFNCEPFGKFYSEDSGGYAIVEMLFSTSLLALVGIGDQPALSPRRLRIINTKKHSIICEVTFPTSILSVKMNKSRLVVLLQEQIYIYDINTMRLLHTIETNPNPRGLMAMSPSVANSYLVYPSPPKVINSEIKAHATTNNITLSVGGNTETSFKRDQQDAGHSDISDLDQYSSFTKRDDADPTSSNGGNSSIIKNGDVIVFNLETLQPTMVIEAHKGEIAAMAISFDGTLMATASDKGTIIRVFDIETGDKIYQFRRGTYATRIYSISFSEDSQYLAVTGSSKTVHIFKLGHSMSNNKLDSDDSNMEEAAADDSSLDTTSIDALSDEENPTRLAREPYVDASRKTMGRMIRYSSQKLSRRAARTLGQIFPIKVTSLLESSRHFASLKLPVETNSHVMTISSIGSPIDIDTSEYPELFETGNSASTESYHEPVMKMVPIRVVSSDGYLYNFVMDPERGGDCLILSQYSILMD
For the molecule B1, the binding result with S. cerevisiae ATG2 is given as “binds”.

B2: the “stoichiometry N” value with human ATG2A is 1.

For DSDEFCILDAPGLGIPPRDGEPVVTQLHPGPIVVRDGYFSRPIGSTD (domain or fragment, human, UniProt Q2TAZ0 1358-1404, looked up) [6xHis-GB1-ATG2A (1358-1404)], in the experiment with human WIPI4, the binding result is “binds”.

The values are drawn from publication doi:10.1101/180315 (bioRxiv, 2018).
